Results on one molecule are retold here after patent US20220153824A1 (University of Pennsylvania, published 2022).

One test has as its target T1, human C5a (human, UniProt P01031 678-751).
T1 construct: domain: C5a; Purified human C5a (Hycult) in ELISA; recombinant human C5a in the Transwell assay; also called free human C5a; recombinant human complement C5a
T1 sequence (looked up): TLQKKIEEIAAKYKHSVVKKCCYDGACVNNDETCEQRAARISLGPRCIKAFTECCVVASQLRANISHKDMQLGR
The test is described as follows: ELISA, plate coated with human C5a. The method, then: Polystyrene microtiter plates were coated with purified human C5 or C5a (50 ng/well, Hycult) in PBS at 37° C. for 1 hr. After aspirating the C5 or C5a solution, wells were blocked with PBS containing 1% BSA in PBS at room temperature for 1 hour. Wells without C5 or C5a coating served as background controls. Different concentration of 7A12 mAb or control anti-C5 mAb or chimeric 7A12, 50 μl/well in blocking solution, were added to the wells. Following 1 hour incubation at room temperature, the wells were extensively washed with PBST. Human C5 or C5a-bound mAb was detected by the addition of anti-mouse IgG HRP 1:4000 dilution in blocking solution, which was allowed to incubate for 1 hour at RT. After washing with PBST, the plate was developed with HRP substrate for 6-10 min. The reaction was stopped with 2N H2SO4 and plate was read at 450 nm in a micro plate reader.
(§1) An ELISA plate was coated with human C5a or mouse C5a. After incubation with serially diluted 7A12 or the control anti-C5 mAb, bound mAb was detected by HRP-conjugated anti-mouse IgG. […] Since mAb 7A12 reacts with the whole C5 protein (as shown in FIG. 1), it can be concluded that mAb 7A12 binds both the C5a moiety of native human C5 and free human C5a. On the other hand, no binding of the control anti-C5 mAb to human C5a was seen, as depicted in FIG. 3B.
(An ELISA detects its analyte on a solid surface through an enzyme-linked reagent.)

Another test deals with T2, mouse C5a (mouse, UniProt P06684 679-755).
T2 construct: domain: C5a; also called purified mouse C5a
T2 sequence (looked up): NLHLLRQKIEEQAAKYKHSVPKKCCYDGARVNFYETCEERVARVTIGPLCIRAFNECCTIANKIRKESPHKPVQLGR
The test is described as follows: ELISA, plate coated with mouse C5a. As for the experimental part: as §1

B1: monoclonal anti-C5a antibody designated mAb 7A12 (antibody, V domains shown)
VH: QVQLQQSDAELVKPGASVKISCKVSGYTFTDHIIHWMNQRPEQGLEWIGYIYPRDGNTNYNENFKGKATLTADKSSSTAYMQLNSLTSEDSAVYFCARERNLEYFDYWGQGTTLTVSS
VL: DIVLTQSPASLAVSLGQRATISCKASQSVDYDGDNYMNWYQQKPGQPPKLLIYAASNLDSGIPARFSGSGSGTDFTLNIHPVEEEDAATYYCQQSNEDPYTFGGGTKLEIKR
notes: also called 7A12 mAb
B1: the binding result is listed as “binds” with human C5a and “no binding” with mouse C5a.
